The source of these data is PMC5797543.

Test [1] deals with recombinant HLA-B*15:01 (heavy chain with human β2-microglobulin light chain) (human).
The target of test [2] is recombinant HLA-A*01:01 (heavy chain with human β2-microglobulin light chain) (human).

B1: ALK R1275Q-derived nonamer neoepitope (…) (peptide)
peptide: AQDIYRASY
Turning to B1, the melting temperature (Tm) of the purified p/MHC complex, differential scanning fluorimetry in test [1] is 53.4 °C. Besides, in test [2], the thermal stability (Tm) of the purified p/MHC complex, differential scanning fluorimetry was 46.7 °C.

B2: ALK R1275Q-derived decamer neoepitope (…) (peptide)
peptide: AQDIYRASYY
As for B2, the melting temperature (Tm) of the purified p/MHC complex, differential scanning fluorimetry in test [1] was determined as 59.3 °C. Further, the thermal stability (Tm) of the purified p/MHC complex, differential scanning fluorimetry in test [2] came to 47.9 °C.
